In patent US9974753B2, “Nanoparticles comprising a vegetable hydrophobic protein and a water miscible non-volatile organic solvent and uses thereof” (BIONANOPLUS, S.L., priority 2012, dated 2018):

Assay: Solubility of zein in PG binary solvent mixtures (turbidity change at 405 nm)
Format: physicochemical
Method: The solubility of zein in different binary mixtures of PG and other water miscible non-volatile organic solvents that are miscible with PG was studied. This example studies the incorporation of different surfactants or solvents to enhance the solubility of a molecule in PG, if necessary. For this purpose, turbidity change of PG zein solution was monitored at 405 nm after the addition of different amounts of water, glycerol, Labrasol®, Tween® 80 or Lutrol® L 44 to 5 mL of zein solution in PG (2.5% w/v), at room temperature. The end point zone, at which zein was precipitated from PG solution, was calculated monitoring the turbidity change at 405 nm, that is, the absorbance increase (in percentage) after each solvent/surfactant addition with respect to the initial absorbance value in a spectrophotometer (Labsystems iEMS Reader MF, Finland).

zein
End point range of zein precipitation from PG solution (Tween® 80 added to zein 2.5% w/v in PG): 65-75 % (v/v) | End point range of zein precipitation from PG solution (glycerol added to zein 2.5% w/v in PG): 45-55 % v/v
